From US20100137155A1, “BIOSENSOR, METHOD FOR FABRICATING THE SAME, DETECTING METHOD UTILIZING THE SAME” (SHARP KABUCHIKI KAISHA, priority 2006, published 2010)

Experiments:
[1] = molecular target: T1, Cry-J1 (Cryptomeria japonica, UniProt P18632); experiment: ELISA detection efficiency for Cry-J1 of peptides bonded to PEG-DG linkers on aminated plate (Examples 2-5); assay type: binding, Japanese cedar (Cryptomeria japonica); conditions: for reactivity with respect to Cry-J1 (SH1 compared with AL1) / inclination of the 450 nm light absorbance versus antigen Cryj1 concentration: PEG-DG chain length 11.0 Å, n=2; for reactivity with respect to Cry-J1 (SH1 compared with AL1): FIG. 10; for inclination of the 450 nm light absorbance versus antigen Cryj1 concentration: antigen Cryj1 0 to 2.0 μg/mL
T1 sequence (P18632 22-374): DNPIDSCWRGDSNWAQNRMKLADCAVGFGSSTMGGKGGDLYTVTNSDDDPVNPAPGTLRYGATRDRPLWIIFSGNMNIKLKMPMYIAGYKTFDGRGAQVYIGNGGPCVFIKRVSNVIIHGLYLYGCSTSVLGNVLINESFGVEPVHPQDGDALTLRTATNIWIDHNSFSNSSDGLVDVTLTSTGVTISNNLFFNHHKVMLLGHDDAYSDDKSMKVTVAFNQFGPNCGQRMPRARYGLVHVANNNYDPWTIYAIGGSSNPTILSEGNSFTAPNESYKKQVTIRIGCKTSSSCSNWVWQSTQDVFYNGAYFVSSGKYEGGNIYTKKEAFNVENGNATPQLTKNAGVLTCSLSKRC
Description: In order to examine influences that the length of the linker has on the detection sensitivity of the biosensor, the following experiment was carried out. A 5 μg/mL aqueous solution of acetyl-NH-TEYTIHWWK-COOH(SH1) serving as an artificially synthesized CRY-J1 recognition peptide was mixed with a sodium hydrogen carbonate buffer solution (pH=9) containing 45 μM poly(or mono)ethylene glycol diglycidyl ether (PEG-DG) in order to cause a solid phase reaction.
As PEG-DG (poly(or mono)ethylene glycol diglycidyl ether) serving as a linker molecule, six kinds thereof with different chain lengths were selected. Specifically, sample 1: 8.3 Å chain length, degree of polymerization n=1; sample 2: 11.0 Å chain length, degree of polymerization n=2; sample 3: 16.6 Å chain length, degree of polymerization n=4; sample 4: […] chain length, degree of polymerization n=9; sample 5: 41.4 Å chain length, degree of polymerization n=13; and sample 6: 66.2 Å chain length, degree of polymerization n=22. The PEG-DG was selected from the Denacole EX series of Nagase ChemteX Corporation.
Using an aminated 96-hole ELISA method plate (Sumilon MS-3608F, available from SUMITOMO BAKELITE Co., Ltd.) as a solid phase, the solid phase reaction was completed in 24 hours at room temperature.
Blocking One, available from Nacalai Tesque, Inc., was used for the blocking, and the reaction was carried out at room temperature and completed in 24 hours.
To each of the linker molecules with different lengths, 50 μL of each of the acetyl-NH-TEYTIHWWK-COOH diluted solutions of 0 μg/mL, 0.2 μg/mL, 0.5 μg/mL, 1.0 μg/mL, 2.0 μg/mL, and 5.0 μg/mL was dropped to cause bonding between the linker and the peptide.
Anti-cedar pollen antigen Cry-J1-HRP (Horse Radish Peroxidase) (SEIKAGAKU CORPORATION) serving as a secondary antibody was prepared by diluting it 1000-fold with a phosphoric acid buffer solution containing 0.1% Tween 20, and 100 μL of this preparation solution was added to cause a reaction for one hour at room temperature. […]
The solid phase reaction was caused by mixing a 5 μg/mL aqueous solution of acetyl-NH-KTEYTIHWWK-COOH with a sodium hydrogen carbonate buffer solution (pH=9) containing 45 μM poly(or mono)ethylene glycol diglycidyl ether (PEG-DG).
The solid phase reaction was caused by mixing a 5 μg/mL aqueous solution of acetyl-NH-TEETIWWWK-COOH with a sodium hydrogen carbonate buffer solution (pH=9) containing 45 μM polyethylene glycol diglycidyl ether (PEG-DG).
As polyethylene glycol diglycidyl ether (PEG-DG), one such that the chain length was 11.0 Å and the degree of polymerization was n=2 was used.
The reaction of the artificially synthesized peptide AM was carried out in such a manner that 50 μL of each of the antigen Cryj1 diluted solutions of 0 μg/mL, 0.2 μg/mL, 0.5 μg/mL, 1.0 μg/mL, 2.0 μg/mL, and 5.0 μg/mL was dropped to cause bonding between the linker and the peptide.
For acetyl-NH-TEYTIHWWK-COOH(SH1) serving as the artificially synthesized Cry-J1 recognition peptide, a solid phase was carried out in accordance with example 2. The poly(or mono)ethylene glycol diglycidyl ether (PEG-DG) that was used was such that the chain length was 11.0 Å and the degree of polymerization was n=2.

[2] = molecular target: T2, pollen allergen protein (Cry-J1) (Cryptomeria japonica, UniProt P18632); experiment: ELISA of Cry-J1 capture by peptide immobilized on amino group-bonded plate via polyethylene diglycidyl ether (Example 1); assay type: binding, Japanese cedar (Cryptomeria japonica); conditions: Cry-J1 0, 1, 5, 10 ng/mL; peptide immobilized through polyethylene diglycidyl ether; FIG. 5
T2 construct: purchased SEIKAGAKU CORPORATION
T2 sequence (P18632 22-374): T1 sequence (P18632 22-374)
Description: The reactivity between anti-Cry-J1 antibody H chain hypervariable area peptide (acetylated TEYTIHWWK) and pollen allergen protein (Cry-J1) was studied by the ELISA method. The experiment method can be summarized as follows.
To a well of an amino group-bonded plate (MS-3608F, available from SUMITOMO BAKELITE Co., Ltd.), a 200 μL solution of 0.0095 mg/mL acetylated TEYTIHWWK and 0.018 mg/mL polyethylene diglycidyl ether was added, and the resulting product was settled for a night at 4° C.
The peptide solution was taken out, followed by addition thereto 200 μL Blocking One (available from Nacalai Tesque, Inc.), and the resulting product was subjected to blocking processing.
After the blocking processing, the blocking solution was taken out and the well was washed with PBS containing 0.05% Tween 20. As the washing, the operation of adding and taking out 200 μL PBS containing 0.05% Tween 20 (20 mM of sodium phosphate, pH 7.4, 0.15 M of NaCl) to and of the well was carried out three times. […]
To the well, 100 μL color developing solution (available from Nacalai Tesque, Inc.) was added to cause a reaction for 10 minutes at room temperature. After the 10 minutes of reaction, 100 μL stop solution was added, and a 450 nm light absorbance was measured with a plate reader (available from Bio-Rad Laboratories, Inc.).

Which “reactivity with respect to Cry-J1 (SH1 compared with AL1)” value [1] does the source give for “acetyl-NH-TEETIWWWK-COOH (Ac-TEETIWWWK-OH) [peptide in which tyrosine was changed to glutamic acid and histidine to tryptophan]” here?
Its value is “substantially the same reactivity”.

And the “inclination of the 450 nm light absorbance versus antigen Cryj1 concentration” value [1]?
The value was “linear”.

“acetyl-NH-TEYTIHWWK-COOH (Ac-TEYTIHWWK-OH) [artificially synthesized CRY-J1 recognition peptide; only α-amino group of N terminal T acetylated, lysine added to C terminal]” was tested. Which “reactivity between peptide and pollen allergen protein (Cry-J1), 450 nm light absorbance” value [2] did it give?
The value was “captured by the peptide depending on the concentration of the protein”.

And the “reactivity with respect to Cry-J1 (SH1 compared with AL1)” value [1]?
The value was “substantially the same reactivity”.

What about the “inclination of the 450 nm light absorbance versus antigen Cryj1 concentration” value [1] of the same substance?
The value was “linear”.

And the “detection efficiency with respect to Cry-J1 (inclination of 450 nm light absorbance)” value (from here on “detection efficiency”) ([1]; linker bonded at C terminal lysine, linker lengths of 15 Å or less (n=1 or 2) compared with 16.6 Å or more (n=4 or greater), FIG. 6)?
Its value is “higher”.

“acetyl-NH-KTEYTIHWWK-COOH (Ac-KTEYTIHWWK-OH) [Cry-J1 recognition peptide with a lysine residue at both terminals, N terminal α-amino group acetylated]” was tested. Which “detection efficiency” value ([1]; one linker at N terminal lysine and another at C terminal lysine, linker lengths 8.3 to 66.2 Å (n=1 to 22), FIG. 8) did it give?
The value was “substantially the same irrespective of the linker length”.

How did the “detection efficiency” value ([1]; linker bonded at N terminal lysine side chain, linker lengths of 20 to 60 Å (degree of polymerization n=4 to 9), FIG. 7) turn out when “acetyl-NH-KTEYTIHWW-COOH (Ac-KTEYTIHWW-OH) [anti-Cry-J1 antibody H chain hypervariable area peptide with N terminal lysine, α-amino group acetylated]” was run?
Its value is “high”.
